Reference: patent US20230312702A1 (KINDRED BIOSCIENCES, published 2023)
“And” between values parts separate entries of the source, which are not always exact repeats. Equal values may be shown once.

Columns and labels:
[1] = biological target: canine FcRn with a poly-His tag and canine B2M heterodimer complex (canine); assay: SPR (Biacore T200) at pH 6.0, biotinylated FcRn/B2M immobilised, Fc as analyte
[2] = biological target: equine IL31 fused to human Fc (equine; human); assay: biolayer interferometry, biotinylated equine IL31 on the sensor, preliminary; biolayer interferometry, biotinylated equine IL31 on the sensor, preliminary; upper end of the range
equine IL31 fused to human Fc (equine; human), sequence (chain, as listed by the source limits assumed, form in doubt): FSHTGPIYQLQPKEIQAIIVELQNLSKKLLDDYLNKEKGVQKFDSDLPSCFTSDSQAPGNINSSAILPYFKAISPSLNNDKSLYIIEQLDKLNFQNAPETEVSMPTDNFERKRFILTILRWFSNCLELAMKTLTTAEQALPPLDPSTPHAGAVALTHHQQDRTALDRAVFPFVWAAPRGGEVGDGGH

[3] = biological target: T1, Canine IL31 with C-terminal polyHis tag (canine, biotinylated at primary amine groups (NHS-LC-Biotin) or at glycan groups (Biotin-LC-Hydrazide)); assay: biolayer interferometry (Octet), canine IL31 (amine-conjugated-biotin) on streptavidin tips, 2:1 fit
T1 construct: the protein was collected from the supernatant of 293 or CHO-S cells; also called biotinylated canine IL31; canine IL31 (amine-conjugated-biotin); not shown: C-terminal poly-His tag
T1 chain: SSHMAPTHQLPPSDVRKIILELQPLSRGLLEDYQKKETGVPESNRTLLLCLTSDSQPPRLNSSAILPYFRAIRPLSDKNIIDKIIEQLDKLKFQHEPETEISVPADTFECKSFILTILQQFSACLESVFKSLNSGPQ
Protocol: (§1) The binding analysis was performed using a biosensor Octet as follows. Briefly, canine IL31 was biotinylated at primary amine groups using EZ-Link™ NHS-LC-Biotin (Thermo Scientific, Catalog No. 21336) or at glycan groups using EZ-Link™ Biotin-LC-Hydrazide (ThermoFisher Scientific, Catalog No. 21340) according to the manufacturer's instructions. The free unreacted biotin was removed from biotinylated IL31 by extensive dialysis. Biotinylated canine IL31 was captured on streptavidin sensor tips. The association of four different concentrations (400, 200, 66.6, and 33 nM) of chimeric and caninized M14 antibody and human and canine IL31 (amine-conjugated-biotin) and the association of 100 nM of caninized M14 antibody and canine IL31 (glycan-conjugated-biotin) was monitored for ninety seconds. Dissociation was monitored for 600 seconds. A buffer only blank curve was subtracted to correct for any drift. The data were fit to a 2:1 binding model using ForteBio™ data analysis software to determine the kₒₙ, koff, and the Kd. The buffer for dilutions and all binding steps was: 20 mM phosphate, 150 mM NaCl, pH 7.2.
(§2) Canine IL31 with C-terminal polyHis tag was expressed and purified from CHO-S cells. Human IL31 was obtained from Sino Biological and Streptavidin biosensors was obtained from ForteBio (Cat. #18-509).

[4] = biological target: T1, Canine IL31 with C-terminal polyHis tag; assay: biolayer interferometry (Octet), canine IL31 (glycan-conjugated-biotin) on streptavidin tips, 100 nM antibody
Protocol: as §1, §2

GST_(S98-S144) = biological target: T2, GST_(S98-S144); assay: immunoblot of GST-canine IL31 fusions expressed in E. coli, membrane probed with chimeric M14; anti-GST blot in Fig. 5B
T2 construct: also called 34.5KDa
T2 GST fusion protein: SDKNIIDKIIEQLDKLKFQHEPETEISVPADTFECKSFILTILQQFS
Text: (§3) To identify the canine IL31 epitope recognized by M14, multiple GST canine IL31 fragment fusion molecules were generated and proteins were expressed intracellularly in E. coli. After the GST fusion proteins were transferred to a membrane, chimeric M14 was used to probe the membrane. A positive signal resulted when the IL31 fragment contained the epitope.

GST_(A127-Q159) = biological target: T3, GST_(A127-Q159); assay: as above
T3 construct: also called 31.1KDa
T3 GST fusion protein: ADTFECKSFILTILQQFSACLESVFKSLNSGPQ
Text: as §3

canine FcRn with a poly-His tag and canine B2M heterodimer complex (canine), sequence (chain, as listed by the source limits assumed, form in doubt, chain 1 of 2): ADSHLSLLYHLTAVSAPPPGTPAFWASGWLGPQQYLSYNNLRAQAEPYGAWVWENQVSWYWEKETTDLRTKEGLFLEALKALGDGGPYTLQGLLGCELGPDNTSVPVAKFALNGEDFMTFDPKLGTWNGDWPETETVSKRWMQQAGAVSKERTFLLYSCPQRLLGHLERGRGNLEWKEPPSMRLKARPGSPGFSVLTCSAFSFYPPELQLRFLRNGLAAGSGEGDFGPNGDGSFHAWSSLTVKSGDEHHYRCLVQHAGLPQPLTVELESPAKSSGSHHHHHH
canine FcRn with a poly-His tag and canine B2M heterodimer complex (canine), sequence (b2m, as listed by the source limits assumed, form in doubt, chain 2 of 2): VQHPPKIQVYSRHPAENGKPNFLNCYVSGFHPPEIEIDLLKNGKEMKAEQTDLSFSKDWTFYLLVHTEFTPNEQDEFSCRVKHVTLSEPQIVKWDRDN

B1: wild-type canine IgG-B Fc polypeptide (protein, not shown: small tags and cut ends)
chain: PAPEMLGGPSVFIFPPKPKDTLLIARTPEVTCVVVDLDPEDPEVQISWFVDGKQMQTAKTQPREEQFNGTYRVVSVLPIGHQDWLKGKQFTCKVNNKALPSPIERTISKARGQAHQPSVYVLPPSREELSKNTVSLTCLIKDFFPPDIDVEWQSNGQQEPESKYRTTPPQLDEDGSYFLYSKLSVDKSRWQRGDTFICAVMHEALHNHYTQESLSHSPGK
Q: With B1 as the binder, how does the koff [1] read?
A: 0.122 s⁻¹

B2: variant canine IgG-B Fc polypeptide L(23)M (protein, not shown: small tags and cut ends)
chain: PAPEMLGGPSVFIFPPKPKDTLMIARTPEVTCVVVDLDPEDPEVQISWFVDGKQMQTAKTQPREEQFNGTYRVVSVLPIGHQDWLKGKQFTCKVNNKALPSPIERTISKARGQAHQPSVYVLPPSREELSKNTVSLTCLIKDFFPPDIDVEWQSNGQQEPESKYRTTPPQLDEDGSYFLYSKLSVDKSRWQRGDTFICAVMHEALHNHYTQESLSHSPGK
Q: Which koff [1] does the source give for B2 here?
A: 0.126 s⁻¹

B3: variant canine IgG-B polypeptide L(23)S (protein, not shown: small tags and cut ends)
chain: PAPEMLGGPSVFIFPPKPKDTLSIARTPEVTCVVVDLDPEDPEVQISWFVDGKQMQTAKTQPREEQFNGTYRVVSVLPIGHQDWLKGKQFTCKVNNKALPSPIERTISKARGQAHQPSVYVLPPSREELSKNTVSLTCLIKDFFPPDIDVEWQSNGQQEPESKYRTTPPQLDEDGSYFLYSKLSVDKSRWQRGDTFICAVMHEALHNHYTQESLSHSPGK
Q: How did the koff [1] turn out when B3 was run?
A: 0.241 s⁻¹

B4: variant canine IgG-B Fc polypeptide L(23)Y (protein, not shown: small tags and cut ends)
chain: PAPEMLGGPSVFIFPPKPKDTLYIARTPEVTCVVVDLDPEDPEVQISWFVDGKQMQTAKTQPREEQFNGTYRVVSVLPIGHQDWLKGKQFTCKVNNKALPSPIERTISKARGQAHQPSVYVLPPSREELSKNTVSLTCLIKDFFPPDIDVEWQSNGQQEPESKYRTTPPQLDEDGSYFLYSKLSVDKSRWQRGDTFICAVMHEALHNHYTQESLSHSPGK
Q: With B4 as the binder, how does the koff [1] read?
A: 0.0138 s⁻¹

B5: variant canine IgG-B Fc polypeptide L(23)F (protein, not shown: small tags and cut ends)
chain: PAPEMLGGPSVFIFPPKPKDTLFIARTPEVTCVVVDLDPEDPEVQISWFVDGKQMQTAKTQPREEQFNGTYRVVSVLPIGHQDWLKGKQFTCKVNNKALPSPIERTISKARGQAHQPSVYVLPPSREELSKNTVSLTCLIKDFFPPDIDVEWQSNGQQEPESKYRTTPPQLDEDGSYFLYSKLSVDKSRWQRGDTFICAVMHEALHNHYTQESLSHSPGK
Q: With B5 as the binder, how does the koff [1] read?
A: 0.0631 s⁻¹ and 0.0847 s⁻¹

B6: monoclonal antibody M14 (mouse antibody clone M14) (antibody, V domains shown)
VH: EVQLQESGPSLVKPSQTLSLTCSVTGDSITSGYWNWIRKFPGNKLEYMGYISYSGITDYNPSLKSRISITRDTSKNQYYLQLNSVTTEDTATYYCARYGNYGYAMDYWGQGTSVTVSS
VL: DIVLTQSPASLAVSLGQRATISCRASESVDTYGNSFMHWYQQKSGQSPKLLIYRASNLESGIPARFGGSGSRTDFTLTIDPVEADDVATYYCQQSYEDPWTFGGGTKLEIK
Q: How did the Kd [2] turn out when B6 was run?
A: < 50 nM

B7: caninized M14 IgG-B (antibody, V domains shown)
VH: EVQLVESGPSLVKPGGSLRLTCSVTGDSITSGYWNWIRKFPGNKLEYMGYISYSGITDYNPSLKSRITISRDTSKNQYYLQLNSVTTEDTATYYCARYGNYGYAMDYWGQGTLVTVSS
VL: DIVMTQSPASLSVSLGQRATISCRASESVDTYGNSFMHWYQQKPGQSPKLLIYRASNLESGIPARFGGSGSGTDFTLTIDPVQADDVATYYCQQSYEDPWTFGGGTKLEIKR
notes: Caninized M14 on canine IgG-B with canine light chain constant region; also called caninized M14 antibody
Q: For B7, which Kd [3] is on record?
A: < 0.01 nM

Q: What about the Kd [4] of the same binder?
A: < 0.001 nM

Q: And the koff [4]?
A: < 1e-07 s⁻¹

B8: chimeric M14 (murine M14 VH and VL fused to canine IgG-B constant heavy chain and canine constant light chain) (antibody, V domains shown)
VH: EVQLQESGPSLVKPSQTLSLTCSVTGDSITSGYWNWIRKFPGNKLEYMGYISYSGITDYNPSLKSRISITRDTSKNQYYLQLNSVTTEDTATYYCARYGNYGYAMDYWGQGTSVTVSS
VL: DIVLTQSPASLAVSLGQRATISCRASESVDTYGNSFMHWYQQKSGQSPKLLIYRASNLESGIPARFGGSGSRTDFTLTIDPVEADDVATYYCQQSYEDPWTFGGGTKLEIKR
notes: expressed in CHO cells, Protein A purified; also called chimeric M14 antibody
Q: Which results are given for B8?
A: binding result (GST_(S98-S144)): no binding; binding result (GST_(A127-Q159)): no binding
